Source: the supplement of paper PMC10126150
± gives the standard deviation of the averaged measurements.
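Also: ATP exposure 15 min at 22 °C before imaging.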

The sequences below were run on ATP (assay: switch fluorescence ratio, 500 uM ATP over buffer (Cy3 cluster intensity, sum of 5 cycles each) (fold (ratio)); higher = stronger signal-on switching upon ATP binding; sequences stand for … in TCGTCGGCAGCGTCAGATGTGTATAAGAGACAGTTTTTTTTTTTTTTTTTTTTTTTTT…TC). Settings: aptamer strand: ATP DNA aptamer (quencher-CACCTGGGGGAGTATTGCGGAGGAAGG + anchor), 100 nM annealed; ATP concentration: 500 uM.
In short: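 Cy3-labelled switching-strand clusters on a modified Illumina MiSeq flow-cell were annealed to 100 nM quencher-labelled ATP aptamer, imaged in selection buffer, then imaged after 15 min with 500 uM ATP at 22 °C. Five buffer/ATP cycles ran, with NaOH stripping and re-annealing between them. The fluorescence ratio is summed target-cycle over summed buffer-cycle Cy3 intensity per cluster, averaged per switch-domain sequence. Clusters outside 100-1000 RFU were excluded.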
ACTGATGTAC gave a switch fluorescence ratio of 1.09 ± 0.012.
For ACTGATTTTG, the switch fluorescence ratio was 1.01 ± 0.029.
ACTGCCCGGC gave a switch fluorescence ratio of 1.1 ± 0.12.
ACTGGACGAT was tested, and the switch fluorescence ratio was 1.19 ± 0.015.
ACTGGGATGT gave a switch fluorescence ratio of 1.02 ± 0.0043.
Sequence ACTGGGGACG has a switch fluorescence ratio of 1.02 ± 0.053.
For ACTGGGGGGC, the switch fluorescence ratio was 1.05 ± 0.016.
For ACTGGGGGGT, the switch fluorescence ratio was 0.994 ± 0.02.
ACTGGGGGTT was tested, and the switch fluorescence ratio was 0.994 ± 0.029.
With ACTGGGGTTT the switch fluorescence ratio was 0.982 ± 0.024.
ACTGGGTACC showed a switch fluorescence ratio of 1.05 ± 0.012.
In the case of ACTGGGTCGA, the switch fluorescence ratio is reported as 1.04 ± 0.034.
For ACTGGGTTTG, the switch fluorescence ratio was 1.001 ± 0.0043.
Work on ACTGGTAAGG yielded a switch fluorescence ratio of 1.009 ± 0.0053.
In the case of ACTGGTATGG, the switch fluorescence ratio is reported as 1.01 ± 0.025.
ACTGGTCAGC was tested, and the switch fluorescence ratio was 1 ± 0.029.
For ACTGGTCGCC, the switch fluorescence ratio was 0.992 ± 0.015.
ACTGGTGGCA gave a switch fluorescence ratio of 1.04 ± 0.028.
Sequence ACTGGTTGGG has a switch fluorescence ratio of 0.966 ± 0.018.
With ACTGTAGTCT the switch fluorescence ratio was 1.06 ± 0.012.
Sequence ACTGTGTGTT has a switch fluorescence ratio of 1.01 ± 0.025.
Sequence ACTGTTAGGC has a switch fluorescence ratio of 1.01 ± 0.056.
In the case of ACTGTTATTT, the switch fluorescence ratio is reported as 1.0389 ± 0.00024.
ACTGTTTGTC showed a switch fluorescence ratio of 0.9897 ± 0.0061.
In the case of ACTGTTTTCT, the switch fluorescence ratio is reported as 1.05 ± 0.02.
With ACTGTTTTGC the switch fluorescence ratio was 0.999 ± 0.019.
Sequence ACTGTTTTTC has a switch fluorescence ratio of 1 ± 0.013.
ACTTAAAAGG showed a switch fluorescence ratio of 1.0122 ± 0.00061.
For ACTTAAGTAG, the switch fluorescence ratio was 0.987 ± 0.04.
For ACTTACGGGC, the switch fluorescence ratio was 1.513 ± 0.0058.
ACTTATCAGG gave a switch fluorescence ratio of 1.04 ± 0.045.
For ACTTATGTGG, the switch fluorescence ratio was 0.974 ± 0.018.
Work on ACTTATTAAA yielded a switch fluorescence ratio of 1.03 ± 0.034.
With ACTTATTCGG the switch fluorescence ratio was 1.02 ± 0.019.
Work on ACTTCCGGG yielded a switch fluorescence ratio of 1.33 ± 0.27.
With ACTTCGTTCT the switch fluorescence ratio was 1.03 ± 0.034.
Sequence ACTTCTAGCG has a switch fluorescence ratio of 1.02 ± 0.072.
With ACTTGACCCG the switch fluorescence ratio was 1.08 ± 0.064.
Work on ACTTGAGGGA yielded a switch fluorescence ratio of 0.9743 ± 0.0071.
Work on ACTTGAGGGG yielded a switch fluorescence ratio of 1.03 ± 0.043.
Work on ACTTGAGGTC yielded a switch fluorescence ratio of 0.991 ± 0.028.
ACTTGCGGCT showed a switch fluorescence ratio of 1 ± 0.05.
Work on ACTTGCGTCG yielded a switch fluorescence ratio of 0.981 ± 0.023.
Sequence ACTTGGAGGG has a switch fluorescence ratio of 1.01 ± 0.011.
For ACTTGGCGTC, the switch fluorescence ratio was 1.02 ± 0.06.
In the case of ACTTGGGGGT, the switch fluorescence ratio is reported as 1.02 ± 0.016.
Work on ACTTGGTCCA yielded a switch fluorescence ratio of 0.987 ± 0.016.
For ACTTGTAATT, the switch fluorescence ratio was 0.997 ± 0.026.
With ACTTGTGACA the switch fluorescence ratio was 1.12 ± 0.18.
For ACTTGTGTAA, the switch fluorescence ratio was 1.018 ± 0.0021.
In the case of ACTTGTTTGC, the switch fluorescence ratio is reported as 1.03 ± 0.035.
In the case of ACTTTAGGGG, the switch fluorescence ratio is reported as 1.06 ± 0.044.
ACTTTATGTT gave a switch fluorescence ratio of 1.041 ± 0.0015.
ACTTTATTGG showed a switch fluorescence ratio of 1.03 ± 0.024.
ACTTTCACGG was tested, and the switch fluorescence ratio was 1.32 ± 0.044.
ACTTTGGCGG was tested, and the switch fluorescence ratio was 0.981 ± 0.044.
Work on ACTTTGTCAT yielded a switch fluorescence ratio of 0.981 ± 0.017.
Sequence ACTTTGTTCT has a switch fluorescence ratio of 1 ± 0.027.
ACTTTTGTTT showed a switch fluorescence ratio of 1.02 ± 0.015.
Sequence AGAAAAAACA has a switch fluorescence ratio of 0.986 ± 0.02.
Work on AGAAAAAACG yielded a switch fluorescence ratio of 1.05 ± 0.092.
In the case of AGAAAAAAGG, the switch fluorescence ratio is reported as 1.23 ± 0.42.
Sequence AGAAAAAAGT has a switch fluorescence ratio of 1.03 ± 0.12.
AGAAAAAGGC was tested, and the switch fluorescence ratio was 1.02 ± 0.065.
Work on AGAAAAAGGG yielded a switch fluorescence ratio of 1.01 ± 0.037.
AGAAAAATTT showed a switch fluorescence ratio of 1.19 ± 0.29.
AGAAAAGCTC showed a switch fluorescence ratio of 1.02 ± 0.033.
For AGAAAAGGGA, the switch fluorescence ratio was 0.995 ± 0.017.
In the case of AGAAAGAGGT, the switch fluorescence ratio is reported as 1.011 ± 0.0096.
AGAAAGTTGA gave a switch fluorescence ratio of 1.024 ± 0.01.
Work on AGAAATCCTT yielded a switch fluorescence ratio of 0.976 ± 0.036.
For AGAAATCTTG, the switch fluorescence ratio was 0.983 ± 0.021.
Sequence AGAACCACCG has a switch fluorescence ratio of 1.12 ± 0.032.
AGAAGAATTG showed a switch fluorescence ratio of 1.04 ± 0.048.
AGAAGAGGTG gave a switch fluorescence ratio of 1.07 ± 0.029.
Work on AGAAGAGTGT yielded a switch fluorescence ratio of 1.03 ± 0.038.
AGAAGCGCGG showed a switch fluorescence ratio of 0.975 ± 0.044.
Work on AGAAGGGTT yielded a switch fluorescence ratio of 1.016 ± 0.0044.
With AGAAGTGGGG the switch fluorescence ratio was 0.989 ± 0.039.
With AGAAGTTTTA the switch fluorescence ratio was 1.01 ± 0.075.
With AGAATAGTCA the switch fluorescence ratio was 1 ± 0.037.
With AGAATCGAAG the switch fluorescence ratio was 0.994 ± 0.0041.
With AGAATGGGGG the switch fluorescence ratio was 1.02 ± 0.022.
For AGAATGGTGA, the switch fluorescence ratio was 0.96 ± 0.061.
For AGAATGTACG, the switch fluorescence ratio was 1.015 ± 0.0078.
AGAATGTGG was tested, and the switch fluorescence ratio was 1.21 ± 0.28.
AGAATTAGGC was tested, and the switch fluorescence ratio was 0.999 ± 0.021.
AGAATTAGTG was tested, and the switch fluorescence ratio was 0.953 ± 0.1.
With AGACAAGGGT the switch fluorescence ratio was 1.01 ± 0.018.
AGACAGTAGG gave a switch fluorescence ratio of 1.03 ± 0.03.
In the case of AGACATCCTT, the switch fluorescence ratio is reported as 1.04 ± 0.014.
Sequence AGACGAGGAA has a switch fluorescence ratio of 1.03 ± 0.058.
With AGACGCCAAG the switch fluorescence ratio was 1.01 ± 0.029.
Sequence AGACGCGTAG has a switch fluorescence ratio of 0.999 ± 0.046.
In the case of AGACGCTTG, the switch fluorescence ratio is reported as 0.9961 ± 0.0042.
AGACGGAGGG showed a switch fluorescence ratio of 1.015 ± 0.0017.
For AGACGGATGC, the switch fluorescence ratio was 1.05 ± 0.019.
Work on AGACGGCGTG yielded a switch fluorescence ratio of 0.9799 ± 0.0066.
For AGACGGCTTG, the switch fluorescence ratio was 1.01 ± 0.025.
AGACGGGAAC showed a switch fluorescence ratio of 1 ± 0.022.
AGACGGGGGG gave a switch fluorescence ratio of 1 ± 0.039.
For AGACGGGTGG, the switch fluorescence ratio was 0.9763 ± 0.0052.
AGACGTGTGT was tested, and the switch fluorescence ratio was 1.023 ± 0.0088.
For AGACTAGTTT, the switch fluorescence ratio was 1.02 ± 0.015.
With AGACTATGTG the switch fluorescence ratio was 0.991 ± 0.024.
For AGACTCACTG, the switch fluorescence ratio was 1.09 ± 0.011.
AGACTGATGA showed a switch fluorescence ratio of 1.01 ± 0.014.
AGACTGTGGC showed a switch fluorescence ratio of 0.991 ± 0.0061.
For AGACTTCCGG, the switch fluorescence ratio was 0.969 ± 0.048.
Sequence AGACTTTTAT has a switch fluorescence ratio of 0.976 ± 0.031.
AGAGACGCTT showed a switch fluorescence ratio of 1.03 ± 0.027.
For AGAGAGACGG, the switch fluorescence ratio was 0.997 ± 0.026.
AGAGAGGTTT showed a switch fluorescence ratio of 0.986 ± 0.039.
Sequence AGAGATCCGG has a switch fluorescence ratio of 0.981 ± 0.018.
With AGAGATGGGG the switch fluorescence ratio was 0.996 ± 0.022.
Sequence AGAGCACTTG has a switch fluorescence ratio of 1.025 ± 0.0032.
AGAGCAGGGA gave a switch fluorescence ratio of 0.97 ± 0.064.
AGAGCGGGGT gave a switch fluorescence ratio of 0.998 ± 0.0091.
AGAGCTCTTT showed a switch fluorescence ratio of 1 ± 0.029.
AGAGGACCGA gave a switch fluorescence ratio of 1.04 ± 0.05.
With AGAGGCGCGT the switch fluorescence ratio was 0.946 ± 0.036.
AGAGGCGTAT showed a switch fluorescence ratio of 0.974 ± 0.011.
With AGAGGCTTAC the switch fluorescence ratio was 1.04 ± 0.051.
AGAGGCTTGG showed a switch fluorescence ratio of 0.997 ± 0.014.
AGAGGGCCGG showed a switch fluorescence ratio of 1.03 ± 0.072.
With AGAGGGCGGA the switch fluorescence ratio was 1 ± 0.02.
With AGAGGGCTTG the switch fluorescence ratio was 0.997 ± 0.018.
For AGAGGGGAT, the switch fluorescence ratio was 1 ± 0.021.
Work on AGAGGGGGCC yielded a switch fluorescence ratio of 0.98 ± 0.18.
AGAGGGGGGA was tested, and the switch fluorescence ratio was 1.02 ± 0.041.
AGAGGGGGGC showed a switch fluorescence ratio of 1.04 ± 0.1.
Work on AGAGGGGTCG yielded a switch fluorescence ratio of 1.02 ± 0.058.
AGAGGGTGAC showed a switch fluorescence ratio of 1.01 ± 0.016.
AGAGGTGGGG gave a switch fluorescence ratio of 0.968 ± 0.012.
AGAGGTTGG gave a switch fluorescence ratio of 0.996 ± 0.026.
For AGAGTAACGG, the switch fluorescence ratio was 0.995 ± 0.015.
With AGAGTATTTT the switch fluorescence ratio was 0.999 ± 0.028.
With AGAGTCAGTG the switch fluorescence ratio was 0.982 ± 0.022.
Sequence AGAGTGATGC has a switch fluorescence ratio of 1 ± 0.087.
With AGAGTGCTTC the switch fluorescence ratio was 0.999 ± 0.028.
Sequence AGAGTGGCAA has a switch fluorescence ratio of 1.04 ± 0.016.
In the case of AGAGTGTGGG, the switch fluorescence ratio is reported as 1.02 ± 0.033.
AGAGTTAACG was tested, and the switch fluorescence ratio was 0.97158 ± 0.00066.
AGAGTTAATG gave a switch fluorescence ratio of 0.968 ± 0.011.
Sequence AGAGTTCCTG has a switch fluorescence ratio of 1.01 ± 0.028.
AGAGTTGGGA showed a switch fluorescence ratio of 1.01 ± 0.018.
Work on AGAGTTTCGA yielded a switch fluorescence ratio of 1.01 ± 0.034.
AGAGTTTGGT was tested, and the switch fluorescence ratio was 0.9847 ± 0.0013.
In the case of AGATAACCCA, the switch fluorescence ratio is reported as 1 ± 0.052.
Work on AGATAAGTTT yielded a switch fluorescence ratio of 1.01 ± 0.034.
AGATAATGGC showed a switch fluorescence ratio of 1.11 ± 0.19.
In the case of AGATAGAGTT, the switch fluorescence ratio is reported as 0.997 ± 0.021.
AGATAGCAGT gave a switch fluorescence ratio of 1.019 ± 0.0016.
